Test results from patent US20230125550A1 (ARCELLX, published 2023).
Numbering of substitutions follows the chain as printed.

T1: AFP p26 (human, UniProt P02771 381-609)
T1 construct: The construct used is not described
T1 sequence: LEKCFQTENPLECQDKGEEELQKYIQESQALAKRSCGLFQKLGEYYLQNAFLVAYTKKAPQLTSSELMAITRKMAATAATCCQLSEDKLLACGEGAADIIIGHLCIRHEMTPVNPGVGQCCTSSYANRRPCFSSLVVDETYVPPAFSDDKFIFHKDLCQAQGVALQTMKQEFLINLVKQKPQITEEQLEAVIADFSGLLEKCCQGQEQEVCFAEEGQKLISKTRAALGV

T2: recombinant human CD123-Fc (human, UniProt P26951 19-305)
T2 construct: not shown: Fc part of CD123-Fc
T2 sequence: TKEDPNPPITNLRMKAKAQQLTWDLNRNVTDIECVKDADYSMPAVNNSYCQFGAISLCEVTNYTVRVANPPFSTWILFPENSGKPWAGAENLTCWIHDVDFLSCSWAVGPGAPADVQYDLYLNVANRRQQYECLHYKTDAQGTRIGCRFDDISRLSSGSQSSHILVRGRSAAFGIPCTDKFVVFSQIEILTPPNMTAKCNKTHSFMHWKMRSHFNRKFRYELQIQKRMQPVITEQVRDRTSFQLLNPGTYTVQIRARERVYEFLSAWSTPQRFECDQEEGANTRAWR

B1: SEQ ID NO 871 (designed binder)
chain: MGSWHSFKQDLAYIKYLLEALGGSEAELAQFEELIAFFEYYLQTYKGKGNPEVEALRKEAAAIRDELQAYRHN
B2: SEQ ID NO 846 (designed binder)
chain: MGSWYWFKYELAEIKWHLEALGGSEAELAHFEHSIAVFESQLQQYKGKGNPEVEALRKEAAAIRDELQAYRHN
B3: SEQ ID NO 869 (designed binder)
chain: MGSWMVFKQDLAEIKANLEALGGSEAELADFEFAIAWFEYELQWYKGKGNPEVEALRKEAAAIRDELQAYRHN
B4: SEQ ID NO 874 (designed binder)
chain: MGSWNNFKSSLASIKQVLEALGGSEAELAVFELQIAHFERELQYYKGKGNPEVEALRKEAAAIRDELQAYRHN
B5: SEQ ID NO 847 (designed binder)
chain: MGSWWVFKKTLAEIKWTLEALGGSEAELAYFEAEIAFFEFILQQYKGKGNPEVEALRKEAAAIRDELQAYRHN
B6: SEQ ID NO 855 (designed binder)
chain: MGSWTHFKEDLAHIKDRLEALGGSEAELAAFELDIAWFEFMLQYYKGKGNPEVEALRKEAAAIRDELQAYRHN
B7: SEQ ID NO 862 (designed binder)
chain: B6 chain with T5S, H6I, E9Q, H13D, R17S, A30M, L33M, F40H, M41T
B8: SEQ ID NO 850 (designed binder)
chain: B6 chain with T5I, H6I, E9T, H13R, D16N, R17Y, A30T, L33R, Y44I
B9: SEQ ID NO 857 (designed binder)
chain: B6 chain with T5Y, H6T, E9G, D10S, H13E, D16N, A30M, L33S, Y44F
B10: SEQ ID NO 865 (designed binder)
chain: B6 chain with T5S, H6V, E9D, H13Q, A30Q, F40Y, M41V, Y44F
B11: SEQ ID NO 858 (designed binder)
chain: B6 chain with T5F, H6T, E9D, H13Q, D16N, A30N, L33M, D34S
B12: SEQ ID NO 863 (designed binder)
chain: B6 chain with T5E, H6I, E9D, H13S, D16K, R17V, A30L, L33S, F40L
B13: SEQ ID NO 864 (designed binder)
chain: B6 chain with T5S, H6I, E9D, H13V, D16E, A30H, L33Q, F40H, M41L
B14: SEQ ID NO 851 (designed binder)
chain: B3 chain with V6H, A16G, N17Y, D30I, F33M, A34D, E41M, W44Y
B15: SEQ ID NO 853 (designed binder)
chain: B6 chain with T5L, H6A, D16S, R17I, A30E, L33H, F40Y
B16: SEQ ID NO 852 (designed binder)
chain: B3 chain with M5Q, V6I, E13A, A16D, N17Y, D30I, A34D, Y40H, E41M
B17: SEQ ID NO 861 (designed binder)
chain: MGSWSYFKEDLANIKSSLEALGGSEAELAWFESSIAWFEHTLQYYKGKGNPEVEALRKEAAAIRDELQAYRHN
B18: SEQ ID NO 854 (designed binder)
chain: B6 chain with T5F, H6V, H13G, D16F, R17I, A30M, L33T, F40Y
B19: SEQ ID NO 848 (designed binder)
chain: MGSWVYFKDHLAEIKSQLEALGGSEAELALFEYDIAWFEFILQYYKGKGNPEVEALRKEAAAIRDELQAYRHN
B20: SEQ ID NO 856 (designed binder)
chain: B6 chain with T5Y, H6Y, D10R, H13A, A30I, L33A
B21: SEQ ID NO 860 (designed binder)
chain: B17 chain with S5V, Y6E, E9R, S16Q, S17R, W30Q, S33M, S34Q
B22: SEQ ID NO 866 (designed binder)
chain: MGSWAVFKDSLAHIKDVLEALGGSEAELALFEMDIAWFEYVLQDYKGKGNPEVEALRKEAAAIRDELQAYRHN
B23: SEQ ID NO 859 (designed binder)
chain: B6 chain with T5V, H6L, E9Q, H13M, D16Q, A30M, L33Y, F40H
B24: SEQ ID NO 849 (designed binder)
chain: B19 chain with D9H, H10R, S16D, L30E, Y33T, F40W, I41M
B25: SEQ ID NO 845 (designed binder)
chain: MGSWYLFKTELAAIKYRLEALGGSEAELASFEYEIAWFEHILQFYKGKGNPEVEALRKEAAAIRDELQAYRHN
B26: SEQ ID NO 868 (designed binder)
chain: MGSWIHFKNDLAVIKDELEALGGSEAELARFEIMIAWFEDALQWYKGKGNPEVEALRKEAAAIRDELQAYRHN
B27: SEQ ID NO 867 (designed binder)
chain: MGSWIAFKDHLAIIKQRLEALGGSEAELARFEFEIAWFEWMLQYYKGKGNPEVEALRKEAAAIRDELQAYRHN
B28: SEQ ID NO 872 (designed binder)
chain: MGSWVVFKSSLAQIKILLEALGGSEAELAIFEVKIAHFEQELQEYKGKGNPEVEALRKEAAAIRDELQAYRHN
B29: SEQ ID NO 873 (designed binder)
chain: B28 chain with V5D, V6Q, S9N, Q13S, I16R, L17V, Q40H, E41F, E44Q
B30: SEQ ID NO 870 (designed binder)
chain: MGSWKNFKLELALIKSKLEALGGSEAELAQFEADIAFFEWSLQWYKGKGNPEVEALRKEAAAIRDELQAYRHN
B31: SEQ ID NO 635 (designed binder)
chain: MGSWYEFYWRLEAIEERLWALGGSEAELAEFEKAIATFEDQLQTYKGKGNPEVEALETEALAIHAELEAYRHN
B32: SEQ ID NO 639 (designed binder)
chain: MGSWWEFLDRLEAIEYRLQALGGSEAELAVFEWEIAMFEDHLQGYKGKGNPEVEALHSEAHAIISELSAYRHN
B33: SEQ ID NO 628 (designed binder)
chain: MGSWWEFEQRLDAIETRLWALGGSEAELAYFEHIIADFEDELQIYKGKGNPEVEALGWEAFAIDGELTAYRHN
B34: SEQ ID NO 627 (designed binder)
chain: MGSWYEFEQRLGAIEERLWALGGSEAELAAFEDIIAYFEYQLQSYKGKGNPEVEALDEEAWAIDDELWAYRHN
B35: SEQ ID NO 637 (designed binder)
chain: MGSWWEFEDRLWAIEQRLDALGGSEAELAVFENSIAKFEDMLQVYKGKGNPEVEALHEEADAIIWELYAYRHN
B36: SEQ ID NO 636 (designed binder)
chain: MGSWFEFQWRLEAIEDRLWALGGSEAELAEFETIIAGFEEQLQVYKGKGNPEVEALEEEAMAIQTELHAYRHN
B37: SEQ ID NO 633 (designed binder)
chain: MGSWYEFWRRLDAIEERLWALGGSEAELAMFETDIAGFEWMLQLYKGKGNPEVEALEHEAWAINSELDAYRHN
B38: SEQ ID NO 631 (designed binder)
chain: MGSWVEFWDRLDAIEERLWALGGSEAELAEFEFMIAMFEQHLQEYKGKGNPEVEALIPEAGAIDKELTAYRHN
B39: SEQ ID NO 632 (designed binder)
chain: MGSWDEFDARLWAIEERLWALGGSEAELAEFEFMIAAFEDVLQEYKGKGNPEVEALMGEANAIVMELDAYRHN
B40: SEQ ID NO 629 (designed binder)
chain: MGSWFEFPYRLEAIEERLYALGGSEAELAQFEQFIAWFEMDLQDYKGKGNPEVEALWFEANAIVEELDAYRHN
B41: SEQ ID NO 630 (designed binder)
chain: MGSWVEFYDRLEAIEIRLWALGGSEAELADFESFIAHFEDDLQAYKGKGNPEVEALMDEANAIVFELDAYRHN
B42: SEQ ID NO 634 (designed binder)
chain: MGSWHEFIWRLDAIEERLWALGGSEAELAWFETEIATFEAQLQDYKGKGNPEVEALEWEAIAIAWELDAYRHN
B43: SEQ ID NO 638 (designed binder)
chain: MGSWWEFEDRLWAIDRRLMALGGSEAELAVFEQMIAHFEQILQVYKGKGNPEVEALHFEAHAIGMELAAYRHN

molecular target: T1, AFP p26; experiment: phage ELISA, A450 target/A450 IgG1-Fc
How it was run: (§1)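 Using VCSM13 helper phage, phage were rescued in 96-well format from single phagemid colonies taken from panning output. Wells were coated with 1.3 microg/ml goat anti-human IgG1-Fc antibody and captured 5 nM recombinant human target or IgG1-Fc before 50 microl of 5×-diluted phage were added, with binding read at 450 nm via HRP-conjugated anti-M13 antibody. Each clone's ELISA ratio is its target-to-IgG1-Fc absorbance, averaged across all screened wells with that clone.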

Row | ELISA_avg | Binder
1 | 25.6 ratio | B1
2 | 21.5 ratio | B2
3 | 17.8 ratio | B3
4 | 24.1 ratio | B4
5 | 18.6 ratio | B5
6 | 30.4 ratio | B6
7 | 16.6 ratio | B7
8 | 16.7 ratio | B8
9 | 32.3 ratio | B9
10 | 30.3 ratio | B10
11 | 30.8 ratio | B11
12 | 27.9 ratio | B12
13 | 25.6 ratio | B13
14 | 18.9 ratio | B14
15 | 18.6 ratio | B15
16 | 17.4 ratio | B16
17 | 11.6 ratio | B17
18 | 14.2 ratio | B18
19 | 22.1 ratio | B19
20 | 31.5 ratio | B20
21 | 30.4 ratio | B21
22 | 24.1 ratio | B22
23 | 29.7 ratio | B23
24 | 11.1 ratio | B24
25 | 20.1 ratio | B25
26 | 17.9 ratio | B26
27 | 29.9 ratio | B27
28 | 8.6 ratio | B28
29 | 15.6 ratio | B29
30 | 20.6 ratio | B30

molecular target: T2, recombinant human CD123-Fc; experiment: phage ELISA, A450 target/A450 IgG1-Fc
How it was run: as §1

Row | ELISA_avg | Binder
31 | 3.7 ratio | B31
32 | 3.1 ratio | B32
33 | 4.7 ratio | B33
34 | 10.6 ratio | B34
35 | 4.4 ratio | B35
36 | 3.4 ratio | B36
37 | 3.6 ratio | B37
38 | 10 ratio | B38
39 | 4.3 ratio | B39
40 | 3.1 ratio | B40
41 | 4 ratio | B41
42 | 3.3 ratio | B42
43 | 4.6 ratio | B43
